In patent publication US20150299322A1 (Dana-Farber, published 2015):

Columns and labels:
[1] = target: T1, recombinant mRGMa-HIS (R&D) (mouse, UniProt Q6PCX7 48-427, limits assumed); experiment: ELISA, coated mRGMa-HIS
T1 construct: Bought from R&D; not shown: HIS tag
T1 sequence (looked up): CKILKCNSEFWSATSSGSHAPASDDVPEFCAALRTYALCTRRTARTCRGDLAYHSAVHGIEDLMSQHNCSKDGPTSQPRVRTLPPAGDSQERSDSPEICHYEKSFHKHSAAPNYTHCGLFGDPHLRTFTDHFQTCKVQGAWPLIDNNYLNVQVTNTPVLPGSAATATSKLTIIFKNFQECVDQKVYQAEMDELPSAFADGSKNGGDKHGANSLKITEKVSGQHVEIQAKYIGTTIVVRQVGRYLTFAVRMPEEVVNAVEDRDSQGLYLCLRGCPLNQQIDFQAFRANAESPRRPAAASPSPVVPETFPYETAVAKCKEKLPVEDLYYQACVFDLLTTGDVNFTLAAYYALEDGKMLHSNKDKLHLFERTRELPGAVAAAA
Experimental: (§1) To examine RGMa/RGMb/RGMc and PD-L2 interaction, 96-well ELISA plates were coated with 2 or 5 μg/ml of recombinant mRGMa-HIS, mRGMb-HIS, mRGMc-HIS, or hRGMb-HIS (R&D). Then, serial dilutions of mPD-L2-hIgG1/IgA, mPD-L2-mIgG2a/IgA, hPD-L2-mIgG2a or control-Ig fusion proteins were added and incubated for 1h at 37° C. Fab₂ goat anti-hIgG-HRP (Jackson ImmunoResearch Laboratories) or rat anti-mIgG2a-HRP (BD Biosciences) at 1:1000 or 1:10000 were used for detection.

[2] = target: T2, recombinant mRGMc-HIS (R&D) (mouse, UniProt Q7TQ32 33-393, limits assumed); experiment: ELISA, coated mRGMc-HIS
T2 construct: Bought from R&D; also called hemojuvelin; not shown: HIS tag
T2 sequence (looked up): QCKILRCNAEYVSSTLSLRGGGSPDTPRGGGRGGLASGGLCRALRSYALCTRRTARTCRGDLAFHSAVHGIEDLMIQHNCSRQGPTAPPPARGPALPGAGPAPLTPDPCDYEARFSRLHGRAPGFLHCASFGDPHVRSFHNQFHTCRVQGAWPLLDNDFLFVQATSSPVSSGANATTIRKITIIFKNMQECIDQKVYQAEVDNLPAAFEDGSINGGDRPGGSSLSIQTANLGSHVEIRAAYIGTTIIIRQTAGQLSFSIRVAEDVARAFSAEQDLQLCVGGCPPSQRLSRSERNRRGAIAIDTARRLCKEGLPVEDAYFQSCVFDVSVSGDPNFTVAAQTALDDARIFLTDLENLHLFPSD
Experimental: as §1

[3] = target: T3, recombinant hRGMb-HIS (R&D) (human, UniProt Q6NW40 46-413); experiment: ELISA, coated hRGMb-HIS, PD-L2-Ig in solution
T3 construct: Bought from R&D; not shown: HIS tag
T3 sequence: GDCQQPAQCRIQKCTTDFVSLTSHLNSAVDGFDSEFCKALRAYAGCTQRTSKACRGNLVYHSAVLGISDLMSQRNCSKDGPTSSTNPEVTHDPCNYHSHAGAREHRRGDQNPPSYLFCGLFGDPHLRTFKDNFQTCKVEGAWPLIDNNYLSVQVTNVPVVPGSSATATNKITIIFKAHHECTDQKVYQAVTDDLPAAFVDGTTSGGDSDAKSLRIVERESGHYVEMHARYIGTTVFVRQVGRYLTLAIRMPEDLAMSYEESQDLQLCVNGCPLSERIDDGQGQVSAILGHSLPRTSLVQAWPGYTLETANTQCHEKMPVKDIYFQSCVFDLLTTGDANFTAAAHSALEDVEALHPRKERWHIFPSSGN
Experimental: as §1

[4] = target: T4, mouse RGMb (mRGMb) expressed on transfected cells (mouse, UniProt Q7TQ33 49-415); experiment: flow cytometry on mRGMb transiently transfected COS cells
T4 construct: whole, on cells; Also used for mRGMb in cell lysates (Western blot); also called DRAGON; 300-mRGMb cells
T4 sequence (looked up): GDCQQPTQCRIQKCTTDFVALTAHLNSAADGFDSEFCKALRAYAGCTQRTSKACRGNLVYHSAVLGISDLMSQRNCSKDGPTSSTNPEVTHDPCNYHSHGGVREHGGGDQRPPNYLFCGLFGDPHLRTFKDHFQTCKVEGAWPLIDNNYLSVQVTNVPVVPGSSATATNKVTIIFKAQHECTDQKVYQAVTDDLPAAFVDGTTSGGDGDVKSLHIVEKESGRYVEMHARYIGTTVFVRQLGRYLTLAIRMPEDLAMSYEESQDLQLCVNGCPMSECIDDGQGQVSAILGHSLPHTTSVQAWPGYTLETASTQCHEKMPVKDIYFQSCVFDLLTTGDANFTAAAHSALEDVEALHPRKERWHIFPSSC
Experimental: A panel of murine activated lymphocyte cDNA expression libraries were transiently transfected into COS cells using DEAE-Dextran or Lipofectamine as facilitator (Freeman et al. (1989) J. Immunol. 143:2714-2722). After 44 hours, COS cells were harvested and panned on mPD-L2-mIgG2a/IgA coated petri plates. Episomal DNA was recovered and electroporated into E. coli DH10B/P3. Spheroplast fusion was used to reintroduce the plasmids into COS cells for subsequent rounds of expression and panning. Before the second and third rounds, COS cells expressing PD-1 were removed by incubating with PD-1 mAb followed by depletion with goat anti-rat IgG magnetic beads. After the third round of panning, individual plasmids were transfected into COS cells and binding of PD-L2-Ig to RGMb was verified by flow cytometry on mRGMb transiently transfected COS cells. At least four independent mRGMb cDNA clones were isolated.

[5] = target: T5, recombinant mRGMb-HIS (R&D) (mouse, UniProt Q7TQ33 49-415, limits assumed); experiment: ELISA, coated BMP-2/4, mRGMb-HIS and PD-L2-Ig at 10 ug/ml, detection of the hIgG part
T5 construct: Bought from R&D; not shown: HIS tag
T5 sequence (looked up): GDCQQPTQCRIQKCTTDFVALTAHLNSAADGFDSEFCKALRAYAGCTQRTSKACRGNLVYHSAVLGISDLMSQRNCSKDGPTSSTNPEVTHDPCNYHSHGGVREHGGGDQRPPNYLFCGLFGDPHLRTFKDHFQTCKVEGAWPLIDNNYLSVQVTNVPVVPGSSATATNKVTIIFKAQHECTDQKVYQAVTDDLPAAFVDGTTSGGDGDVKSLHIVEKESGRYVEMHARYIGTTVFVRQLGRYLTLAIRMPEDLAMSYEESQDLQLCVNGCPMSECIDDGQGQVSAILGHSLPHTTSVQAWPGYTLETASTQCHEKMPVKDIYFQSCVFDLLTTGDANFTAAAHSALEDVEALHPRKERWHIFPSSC
Experimental: To determine if RGMb binds PD-L2 and BMP-2/4 simultaneously, 96-well ELISA plates were coated with BMP-2/4 as above. mPD-L2-hIgG1/IgA, mPD-L2-hIgG (R&D), mPD-L1-hIgG (R&D) or control-Ig fusion proteins at 10 μg/ml were preincubated with 10 μg/ml mRGMb-HIS (R&D) or buffer alone for 15 min. at room temperature (RT), then added to the plates and incubated for 1h at 37° C. Alternatively, 10 μg/ml mRGMb-HIS (R&D) or buffer alone was added first to the plates and incubated for 1h at 37° C. After wash, mPD-L2-Ig or control-Ig fusion proteins were added and incubated for 1h at 37° C. Fab₂ goat anti-hIgG-HRP (Jackson ImmunoResearch Laboratories) at 1:10000 was used for detection.
To test if RGMb can bind both PD-L2 and BMP at the same time, an ELISA was performed to analyze the binding capacity of PD-L2-Ig fusion protein to immobilized BMP-2/4 in the presence or absence of RGMb. PD-L2 could not directly bind to BMP-2/4, but in the presence of RGMb could form a complex with BMP when RGMb and PD-L2-Ig were added simultaneously (FIG. 4A-4B) or sequentially to BMP-2/4.

binding result [1]: no binding
binding result [2]: no binding
binding result [3]: binds
binding result [4]: binds
binding result [5]: binds
B1: mPD-L2-Ig fusion protein (construct not told at the result) (Fc fusion, mouse, UniProt Q9WUL5 20-221, looked up)
chain: LFTVTAPKEVYTVDVGSSVSLECDFDRRECTELEGIRASLQKVENDTSLQSERATLLEEQLPLGKALFHIPSVQVRDSGQYRCLVICGAAWDYKYLTVKVKASYMRIDTRILEVPGTGEVQLTCQARGYPLAEVSWQNVSVPANTSHIRTPEGLYQVTSVLRLKPQPSRNFSCMFWNAHMKELTSAIIDPLSRMEPKVPRTW
notes: extracellular domain; not shown: Ig part: the methods name mPD-L2-hIgG1/IgA, mPD-L2-mIgG2a/IgA and mPD-L2-hIgG (R&D)
